This is an account of results in article PMC8501077 (Nature Communications, 2021).

Data set [1] deals with FLAG-tagged Sei1∆231-243, locking helix replaced by a flexible linker (S. cerevisiae) (UniProt Q06058). In words: cryo-EM structure; single-particle cryo-EM of FLAG-purified protein in DDM/CHS (50 mM Tris.HCl pH7.4, 200 mM NaCl, 1 mM EDTA); C10 symmetry applied.
Data set [2] deals with the molecule itself. The data set is described as above.

Broadly, the stoichiometry N is the number of molecules, sites or subunits per partner or assembly. The molecule “FLAG-tagged Sei1∆231-243, locking helix replaced by a flexible linker (from UniProt Q06058 1-230; Q06058 244-285) (natural protein)” came in with a stoichiometry N in data set [1] of 10.

B1: C-terminally 3xFLAG tagged Sei1 (yeast Seipin) (natural protein, S. cerevisiae)
chain: MKINVSRPLQFLQWSSYIVVAFLIQLLIILPLSILIYHDFYLRLLPADSSNVVPLNTFNILNGVQFGTKFFQSIKSIPVGTDLPQTIDNGLSQLIPMRDNMEYKLDLNLQLYCQSKTDHLNLDNLLIDVYRGPGPLLGAPGGSNSKDEKIFHTSRPIVCLALTDSMSPQEIEQLGPSRLDVYDEEWLNTIRIEDKISLESSYETISVFLKTEIAQRNLIIHPESGIKFRMNFEQGLRNLMLRKRFLSYIIGISIFHCIICVLFFITGCTAFIFVRKGQEKSKKHS
notes: Sei1, the yeast Seipin, S. cerevisiae; model built for residues 24-132 and 145-265; also called Sei1-FLAG; WT Sei1; source: S. cerevisiae, plasmid-borne, in detergent extract of crude membranes; not shown: 3xFLAG, C-terminal, kept; copies: 10
As to B1, the “stoichiometry N” value in data set [2] was 10.
